Source: US8679766B2, “E-cadherin as a biomarker of gastroesophageal reflux disease” (The University of North Carolina at Chapel Hill, priority 2009, dated 2014)

Tested on: rabbit EE
Assay: Barrier breaker search: rabbit EE in U-chambers, monitoring RT (marker of PCP) and Isc
Assay type: cell-based
Conditions: at pH 2
From the text: Agents that increase paracellular permeability (PCP) in EE are potential contributors to GERD by enabling diffusion of luminal acid into the intercellular space. Therefore, substances were sought within the refluxate, meals and inflammation that could ‘break the barrier’. This was done by exposing rabbit EE in U-chambers to candidate inflammatory agents while both monitoring RT, as a marker of PCP, and Isc (short circuit current), as a marker of active transport. The inflammatory agents were selected based on presence in EE or on reports that they can break the barrier in other epithelia (47-60).

B1: pepsin: barrier breaker identified at pH 2 (protein, UniProt P0DJD8 63-388, looked up)
Pepsin A-3: VDEQPLENYLDMEYFGTIGIGTPAQDFTVVFDTGSSNLWVPSVYCSSLACTNHNRFNPEDSSTYQSTSETVSITYGTGSMTGILGYDTVQVGGISDTNQIFGLSETEPGSFLYYAPFDGILGLAYPSISSSGATPVFDNIWNQGLVSQDLFSVYLSADDQSGSVVIFGGIDSSYYTGSLNWVPVTVEGYWQITVDSITMNGEAIACAEGCQAIVDTGTSLLTGPTSPIANIQSDIGASENSDGDMVVSCSAISSLPDIVFTINGVQYPVPPSAYILQSEGSCISGFQGMNLPTESGELWILGDVFIRQYFTVFDRANNQVGLAPVA
In the case of B1, the “breaks the barrier (RT as marker of PCP)” value is reported as “barrier breakers”.
